{"source": "patent US20160130654A1", "about": "“SYSTEMS AND METHODS FOR DIAGNOSING AND TREATING CANCER” (THE TRANSLATIONAL GENOMICS RESEARCH INSTITUTE, priority 2013, published 2016)", "molecules": {"B1": {"name": "TWEAK: Human recombinant tumor necrosis factor-like weak inducer of apoptosis, purchased from PeproTech (protein, UniProt O43508 94-249, looked up)", "Tumor necrosis factor ligand …": "SAPKGRKTRARRAIAAHYEVHPRPGQDGAQAGVDGTVSGWEEARINSSSPLRYNRQIGEFIVTRAGLYYLYCQVHFDEGKAVYLKLDLLVDGVLALRCLEEFSATAASSLGPQLRLCQVSGLLALRPGSSLRIRTLPWAHLKAAPFLTYFGLFQVH"}}, "type_in_all_cases": "cell-based, Human", "key": {"H2073 cells": {"test_system": "H2073 cells", "test": "Clonogenic (colony-formation) assay", "method": "FIGS. 6A-6F illustrate that TWEAK-induced NSCLC cell survival is dependent on Mcl-1 expression. H1975 (FIG. 6A) and H2073 (FIG. 6B) cells were transfected with luciferase (siCont) or siRNAs targeting Mcl-1. Total lysates were collected 72 hours post-transfection and immunoblotted for Mcl-1 and alpha-tubulin. H1975 (FIGS. 6C and 6E) and H2073 (FIGS. 6D and 6F) cells transfected with control or siRNA constructs targeting Mcl-1 were exposed to 1 μM cisplatin for 24 hours (FIGS. 6C and 6D) or 2Gy ionizing radiation (FIGS. 6E and 6F)±pre-incubation with TWEAK (100 ng/mL). Cells were sparsely seeded into 6-well dishes and allowed to grow for 7 days prior to staining with crystal violet and colony counting. A colony was defined as containing at least 50 cells. […]\nObservations of colony forming capacity following cytotoxic insult were performed as previously described (Franken N A, Rodermond H M, Stap J, Haveman J, van Bree C. Clonogenic assay of cells in vitro. Nat Protoc. 2006; 1:2315-9). […] Cells were then trypsinized, quantified, and equally dispersed in triplicate in 6-well cell culture dishes at 250 cells per well. […] Apparent colonies were counted. […] Statistical significance, defined as a p value <0.05, was determined by ANOVA analysis with Bonferroni posttests in Graphpad Prism."}, "H1975 cells": {"test_system": "H1975 cells", "test": "Clonogenic (colony-formation) assay", "method": "FIGS. 6A-6F illustrate that TWEAK-induced NSCLC cell survival is dependent on Mcl-1 expression. H1975 (FIG. 6A) and H2073 (FIG. 6B) cells were transfected with luciferase (siCont) or siRNAs targeting Mcl-1. Total lysates were collected 72 hours post-transfection and immunoblotted for Mcl-1 and alpha-tubulin. H1975 (FIGS. 6C and 6E) and H2073 (FIGS. 6D and 6F) cells transfected with control or siRNA constructs targeting Mcl-1 were exposed to 1 μM cisplatin for 24 hours (FIGS. 6C and 6D) or 2Gy ionizing radiation (FIGS. 6E and 6F)±pre-incubation with TWEAK (100 ng/mL). Cells were sparsely seeded into 6-well dishes and allowed to grow for 7 days prior to staining with crystal violet and colony counting. A colony was defined as containing at least 50 cells. Bars represent average of three independent wells±standard error with the non-treated (first bar) set to 1. * represents a p value <0.05 by ANOVA with Bonferroni posttest.\nH1975 (FIG. 7A) and H2073 (FIG. 7B) cells were transfected with luciferase (siCont) or siRNA targeting Bcl-xL. Total lysates were collected 72 hours post-transfection and immunoblotted for Bcl-xL and alpha-tubulin. H1975 (FIGS. 7C and 7E) and H2073 (FIGS. 7D and 7F) cells transfected with control or siRNA construct targeting Bcl-xL were exposed to 1 μM cisplatin for 24 hours (FIGS. 7C and 7D) or 2Gy ionizing radiation (FIGS. 7E and 7F)±pre-incubation with TWEAK (100 ng/mL). Cells were sparsely seeded into 6-well dishes and allowed to grow for 7 days prior to staining with crystal violet and colony counting. A colony was defined as containing at least 50 cells. Bars represent average of three independent wells±standard error with the non-treated (first bar) set to 1. * represents a p value <0.05 by ANOVA with Bonferroni posttest.\nH1975 (FIGS. 11A and 11B) cells were pre-incubated with TWEAK (100 ng/mL), (FIG. 11A) EU-5148 (10 μM), (FIG. 11B) ABT-737 (10 […]) or both drug and TWEAK prior to exposure to 2Gy ionizing radiation. Cells were sparsely seeded (125 cells) into 6-well dishes and allowed to grow for 7 days prior to staining with crystal violet and colony counting. A colony was defined as containing at least 50 cells. Bars represent average of three independent wells±standard error with the non-treated (first bar) set to 1. * represents a p value <0.05 by ANOVA with Bonferroni posttest.\nFIGS. 12A-12C illustrate that pharmacologic inhibition of Mcl-1 abrogates TWEAK-mediated cell survival. […]\nObservations of colony forming capacity following cytotoxic insult were performed as previously described (Franken N A, Rodermond H M, Stap J, Haveman J, van Bree C. Clonogenic assay of cells in vitro. Nat Protoc. 2006; 1:2315-9). […] Cells were then trypsinized, quantified, and equally dispersed in triplicate in 6-well cell culture dishes at 250 cells per well. […]"}, "[1]": {"test_system": "cleaved-PARP in H1975 cells", "test": "Cleaved-PARP immunoblot (apoptosis)", "method": "FIGS. 8A and 8B illustrate that depletion of Mcl-1 abrogates TWEAK-induced protection from cell death induced by DNA damage. H1975 cells were transfected with either siRNA targeting luciferase (control) or Mcl-1. Cells were exposed to 5 uM cisplatin (FIG. 8A) or 8Gy radiation (FIG. 8B) for 0, 4 or 24 hours±pre-incubation with TWEAK (100 ng/mL). Total cell lysates were prepared and immunoblotted for cleaved-PARP (cPARP) and GAPDH as a loading control. All blots were run in duplicate.\nMcl-1, Bcl-2, Bcl-xL, phospho-p65 (Serine residue 536), Bak, GAPDH, and cleaved-PARP antibodies were obtained from Cell Signaling Technology Inc. (Beverly, Mass.), and α-tubulin antibody was obtained from Millipore (San Diego, Calif.). Human recombinant TWEAK was purchased from PeproTech (Rock Hill, N.J.), and cisplatin was obtained from TZS Chemical via BIOTANG Inc. (Waltham, Mass.). The Mcl-1-specific inhibitor EU-5148 was kindly provided by Eutropics Pharmaceuticals (Cambridge, Mass.). ABT-737 was obtained from Selleck Chemicals (Houston, Tex.). […]"}, "[2]": {"test_system": "phosphorylated p65, Mcl-1, Bcl-xL in H2073 cells", "test": "Immunoblot after TWEAK treatment", "conditions": "H2073, TWEAK 100 ng/mL", "method": "(§1) FIGS. 4A-4C illustrate that TWEAK induces Mcl-1 in NSCLC cell lines in an NF-κB-dependent manner. Total cell lysates were prepared from serum-reduced (FIG. 4A) H1975 and (FIG. 4B) H2073 cell lines treated with TWEAK for the indicated times and immunoblotted with the indicated antibodies: Mcl-1, Bcl-xL, and phosphorylated-p65 (Ser536). Tubulin was used as a loading control. (FIG. 4C) Serum-reduced H2073 cells transfected±IkBα mutant were treated with TWEAK for 24 hours. Cells were harvested, total cell lysates were prepared and immunoblotted with the indicated antibodies to both Mcl-1 and phospho-p65. All blots were run in duplicate and tubulin was used as a loading control.\n(§2) Human lung adenocarcinoma cell lines H1975 and H2073 (ATCC, Manassas, Va.) were maintained in RPMI 1640 media (Invitrogen, Carlsbad, Calif.) plus 10% heat-inactivated fetal bovine serum (FBS) in a 37° C., 5% CO2 atmosphere. SU-DHL10 (Deng J, Carlson N, Takeyama K, Dal Cin P, Shipp M, Letai A. BH3 profiling identifies three distinct classes of apoptotic blocks to predict response to ABT-737 and conventional chemotherapeutic agents. Cancer Cell. 2007; 12:171-85), Bcl-2 1863 and Mcl-1 1780 cell lines (Ryan J A, Brunelle J K, Letai A. Heightened mitochondrial priming is the basis for apoptotic hypersensitivity of CD4+CD8+ thymocytes. Proc Natl Acad Sci USA. 2010; 107:12895-900) were maintained in RPMI 1640 plus 10% FBS with 50 μM β-mercaptoethanol added to 1863 and 1780 cells. In all assays treated with TWEAK, cells were cultured in reduced serum (0.5% FBS) for 16 hours prior to stimulation with TWEAK at 100 ng/mL in RPMI+0.1% bovine serum albumin (BSA) for the indicated times.\n(§3) Mcl-1, Bcl-2, Bcl-xL, phospho-p65 (Serine residue 536), Bak, GAPDH, and cleaved-PARP antibodies were obtained from Cell Signaling Technology Inc. (Beverly, Mass.), and α-tubulin antibody was obtained from Millipore (San Diego, Calif.). Human recombinant TWEAK was purchased from PeproTech (Rock Hill, N.J.), and cisplatin was obtained from TZS Chemical via BIOTANG Inc. (Waltham, Mass.). The Mcl-1-specific inhibitor EU-5148 was kindly provided by Eutropics Pharmaceuticals (Cambridge, Mass.). ABT-737 was obtained from Selleck Chemicals (Houston, Tex.). Immunoblot analysis was performed as previously described (Whitsett T G, Cheng E, Inge L, Asrani K, Jameson N M, Hostetter G, et al. Elevated expression of Fn14 in non-small cell lung cancer correlates with activated EGFR and promotes tumor cell migration and invasion. Am J Pathol. 2012; 181:111-20; Tran N L, McDonough W S, Savitch B A, Sawyer T F, Winkles J A, Berens M E. The tumor necrosis factor-like weak inducer of apoptosis (TWEAK)-fibroblast growth factor-inducible 14 (Fn14) signaling system regulates glioma cell survival via NFkB pathway activation and BCL-XL/BCL-W expression. J Biol Chem. 2005; 280:3483-92)."}, "[3]": {"test_system": "phosphorylated p65, Mcl-1, Bcl-xL, Bcl-2 in H1975 cells", "test": "Immunoblot after TWEAK treatment", "method": "as §1, §2, §3"}, "[4]": {"test_system": "Mcl-1 and Bcl-xL mRNA in H2073 cells", "test": "qPCR of Mcl-1 and Bcl-xL mRNA after TWEAK", "conditions": "H2073, TWEAK 100 ng/mL, maximal at about 6 hours", "method": "(§4) FIGS. 5A and 5B illustrate that TWEAK exposure enhances Mcl-1 and Bcl-xL mRNA expression. Total RNA was collected from (FIG. 5A) H1975 and (FIG. 5B) H2073 cells treated with 100 ng/mL TWEAK for the indicated time points. mRNA expression of Mcl-1 and Bcl-xL were determined by qPCR with histone H3.3 mRNA levels used as endogenous control. Bars represent the average±standard error of triplicate qPCR reactions. * represents a p value <0.05 compared to no treatment (of the respective gene) by Student's t test. All assays were run in duplicate.\n(§5) Human lung adenocarcinoma cell lines H1975 and H2073 (ATCC, Manassas, Va.) were maintained in RPMI 1640 media (Invitrogen, Carlsbad, Calif.) plus 10% heat-inactivated fetal bovine serum (FBS) in a 37° C., 5% CO2 atmosphere. […]\n(§6) mRNA expression was determined by qPCR as previously described (Fortin Ensign S P, Mathews I T, Eschbacher J M, Loftus J C, Symons M H, Tran N L. The Src homology 3 domain-containing guanine nucleotide exchange factor is overexpressed in high-grade gliomas and promotes tumor necrosis factor-like weak inducer of apoptosis-fibroblast growth factor-inducible 14-induced cell migration and invasion via tumor necrosis factor receptor-associated factor 2. J Biol Chem. 2013; 288:21887-97). […]"}, "[5]": {"test_system": "Mcl-1 and Bcl-xL mRNA in H1975 cells", "test": "qPCR of Mcl-1 and Bcl-xL mRNA after TWEAK", "conditions": "H1975, TWEAK 100 ng/mL, maximal at about 6 hours", "method": "as §4, §5, §6"}}, "data": [{"molecule": "N.N.[Cl][Pt][Cl]", "note": "[cisplatin, reference compound]", "values": [{"measurement": "cell survival (colony formation)", "setting": "H2073 cells; H2073, 1 μM cisplatin", "result": "significantly reduced NSCLC cell survival"}, {"measurement": "cell survival (colony formation)", "setting": "H1975 cells; H1975, 1 μM cisplatin", "result": "significantly reduced NSCLC cell survival"}, {"measurement": "protein expression of cleaved-PARP", "setting": "[1]; H1975, 5 uM cisplatin, 0, 4 or 24 hours", "result": "induces protein expression of cleaved-PARP over time"}]}, {"molecule": "CN(C)CC[C@H](CSc1ccccc1)Nc1ccc(S(=O)(=O)NC(=O)c2ccc(N3CCN(Cc4ccccc4-c4ccc(Cl)cc4)CC3)cc2)cc1[N+](=O)[O-]", "note": "[ABT-737]", "values": [{"measurement": "effect on TWEAK-induced cell survival", "setting": "H1975 cells; H1975, drug 10 μM plus TWEAK 100 ng/mL, 2Gy ionizing radiation", "result": "lesser effect on TWEAK-induced cell survival"}, {"measurement": "sensitivity to radiation (cell survival, colony count)", "setting": "H1975 cells; H1975, drug 10 μM pre-incubation, 2Gy ionizing radiation", "result": "did sensitize H1975 cells to radiation"}]}, {"molecule": "B1", "values": [{"measurement": "cell survival after cisplatin or radiation with TWEAK pre-treatment", "setting": "H2073 cells; H2073, TWEAK 100 ng/mL, 1 μM cisplatin or 2Gy", "result": "significantly attenuated the effects of either cisplatin or radiation"}, {"measurement": "cell survival after cisplatin or radiation with TWEAK pre-treatment", "setting": "H1975 cells; H1975, TWEAK 100 ng/mL, 1 μM cisplatin or 2Gy", "result": "significantly attenuated the effects of either cisplatin or radiation"}, {"measurement": "phosphorylated p65 (P-p65)", "setting": "[2]", "result": "clear induction"}, {"measurement": "protein expression of Mcl-1 and Bcl-xL over time", "setting": "[2]", "result": "incremental increases"}, {"measurement": "phosphorylated p65 (P-p65)", "setting": "[3]; H1975, TWEAK 100 ng/mL", "result": "clear induction"}, {"measurement": "protein expression of Mcl-1 and Bcl-xL over time", "setting": "[3]; H1975, TWEAK 100 ng/mL", "result": "incremental increases"}, {"measurement": "protein expression of Bcl-2", "setting": "[3]; H1975, TWEAK exposure", "result": "up-regulated"}, {"measurement": "maximal increase of Mcl-1 and Bcl-xL mRNA levels", "setting": "[4]", "result": 50, "unit": "fold"}, {"measurement": "maximal increase of Mcl-1 and Bcl-xL mRNA levels", "setting": "[5]", "result": 10, "unit": "fold"}, {"measurement": "induction of cleaved-PARP with TWEAK pretreatment", "setting": "[1]; H1975, TWEAK 100 ng/mL, 5 uM cisplatin or 8Gy radiation, 4 or 24 hours", "result": "completely abrogates the induction of cleaved-PARP"}]}]}
